Source: paper PMC12697864, “cGAS Inhibits ALDH2 to Suppress Lipid Droplet Function and Regulate MASLD Progression” (Advanced Science, 2025)

Biological target: the molecule itself
Experiment: mass photometry; TWOMP (Refeyn), room temperature, 1X PBS with 1 mM β-mercaptoethanol, proteins at 10 nM-400 nM; hALDH2 with NAD+, with or without mcGAS; tetramer formation

B1: His-ALDH2, purified full-length human ALDH2 (enzyme, UniProt P05091 18-517, looked up)
chain: SAAATQAVPAPNQQPEVFCNQIFINNEWHDAVSRKTFPTVNPSTGEVICQVAEGDKEDVDKAVKAARAAFQLGSPWRRMDASHRGRLLNRLADLIERDRTYLAALETLDNGKPYVISYLVDLDMVLKCLRYYAGWADKYHGKTIPIDGDFFSYTRHEPVGVCGQIIPWNFPLLMQAWKLGPALATGNVVVMKVAEQTPLTALYVANLIKEAGFPPGVVNIVPGFGPTAGAAIASHEDVDKVAFTGSTEIGRVIQVAAGSSNLKRVTLELGGKSPNIIMSDADMDWAVEQAHFALFFNQGQCCCAGSRTFVQEDIYDEFVERSVARAKSRVVGNPFDSKTEQGPQVDETQFKKILGYINTGKQEGAKLLCGGGIAADRGYFIQPTVFGDVQDGMTIAKEEIFGPVMQILKFKTIEEVVGRANNSTYGLAAAVFTKDLDKANYLSQALQAGTVWVNCYDVFGAQSPFGGYKMSGSGRELGEYGLQAYTEVKTVTVKVPQKNS
notes: aldehyde dehydrogenase 2 (ALDH2), human, full-length gene, codon-optimised, in pET28a; Two preparations: likely apo hALDH2, and tetrameric hALDH2 isolated by SEC after incubation with 1 mM NAD+; Tetramer forms with NAD+ (mass photometry); also called hALDH2; bacterially purified ALDH2 proteins; source: E. coli Rosetta (DE3), purified (Ni Sepharose, Q column, SEC); not shown: His6, N-terminal, kept
For B1, the “stoichiometry N” value was 4.
